{"source": "patent US11685791B2", "about": "“Antibody binding specifically to N-terminal region of lysyl-tRNA synthetase exposed on cell membrane” (Zymedi Co., Ltd., priority 2017, dated 2023)", "molecules": {"B1": {"name": "N7 scFv: scFv clone consisting of the amino acid sequence defined by SEQ ID NO: 71 (protein)", "scFv": "EVQLLESGGGLVQPGGSLRLSCAASGFTFSDYYMSWVRQAPGKGLEWVSGIYSGTGSIYYADSVEGRFTISRDNSKNTLYLQMNSLRAEDTAVYYSARPPYHFDYWGQGTLVTVSSGGGGSGGGGSGGGGSQSVLTQPPSASGTPGQRVTISCTGSSSNIGSNYVTWYQQLPGTAPKLLIYADSNRPSGVPDRFSGSKSGTSASLAISGLRSEDEADYYCGAWDYSLSGYVFGGGTKLTVL"}, "B2": {"name": "N5 IgG: IgG converted from N5 scFv; VH SEQ ID NO: 53, VL SEQ ID NO: 55 (antibody, V domains shown)", "VH": "EVQLLESGGGLVQPGGSLRLSCAASGFTFSDYAMSWVRQAPGKGLEWVSWIYSGSGNKYYADSVKGRFTISRDNSKNTLYLQMNSLRAEDTAVYYCARMGLDFDYWGQGTLVTVSS", "VL": "QSVLTQPPSASGTPGQRVTISCTGSSSNIGNNYVSWYQQLPGTAPKLLIYDDNQRPSGVPDRFSGSKSGTSASLAISGLRSEDEADYYCGTWDDSLSAYVFGGGTKLTVL"}, "B3": {"name": "N5 scFv: scFv clone consisting of the amino acid sequence defined by SEQ ID NO: 69 (protein)", "scFv": "EVQLLESGGGLVQPGGSLRLSCAASGFTFSDYAMSWVRQAPGKGLEWVSWIYSGSGNKYYADSVKGRFTISRDNSKNTLYLQMNSLRAEDTAVYYCARMGLDFDYWGQGTLVTVSSGGGGSGGGGSGGGGSQSVLTQPPSASGTPGQRVTISCTGSSSNIGNNYVSWYQQLPGTAPKLLIYDDNQRPSGVPDRFSGSKSGTSASLAISGLRSEDEADYYCGTWDDSLSAYVFGGGTKLTVL"}, "B4": {"name": "N9 scFv: scFv clone consisting of the amino acid sequence defined by SEQ ID NO: 73 (protein)", "scFv": "EVQLLESGGGLVQPGGSLRLSCAASGFTFSNYDMSWVRQAPGKGLEWVSWIYSGDSSKYYADSVKGRFTISRDNSKNTLYLQMNSLRAEDTAVYYSARETRTFDYWGQGTLVTVSSGGGGSGGGGSGGGGSQSVLTQPPSASGTPGQRVTISCTGSSFNIGSNAVYWYQQLPGTAPKLLIYYNSQRPSGVPDRFSGSKSGTSASLAISGLRSEDEADYYCGSWDASLSGYVFGGGTKLTVL"}, "B5": {"name": "N3 scFv: scFv clone consisting of the amino acid sequence defined by SEQ ID NO: 67 (protein)", "scFv": "EVQLLESGGGLVQPGGSLRLSCAASGFTFSSYDMSWVRQAPGKGLEWVSAISYDNGNTYYADSVKGRFTISRDNSKNTLYLQMNSLRAEDTAVYYSARMALDFDYWGQGTLVTVSSGGGGSGGGGSGGGGSQSVLTQPPSASGTPGQRVTISCTGSSSNIGSNYVTWYQQLPGTAPKLLIYDNSNRPSGVPDRFSGSKSGTSASLAISGLRSEDEADYYCASWDDSLSAYVFGGGTKLTVL"}}, "key": {"[1]": {"tested_on": "pulmonary arterial hypertension (PAH) models", "experiment": "Echocardiography in PAH model", "format": "in vivo, rat", "details": "MCT PAH rats, five animals per group", "text": "(§3) To induce PAH in seven-week-old SD rats (Orient Bio), 60 mpk of monocrotaline (MCT) was subcutaneously injected. […] All antibodies were i.v. injected twice a week, and sildenafil was orally administered every day."}, "[2]": {"experiment": "Body weight change in PAH model", "details": "MCT + Sildenafil, n = 5", "text": "as §3"}, "[3]": {"tested_on": "pulmonary arterial hypertension (PAH) models", "experiment": "Blood pressure and cardiac output in monocrotaline PAH model", "format": "in vivo, rat", "details": "MCT + Sildenafil 25 mpk orally every day, 3 weeks", "procedure": "After three weeks, the rats were anesthetized with isoflurane, and measured for blood flow and pressure by using a high-precision pneumatic measurement system (MPVS cardiovascular pressure and volume system, model name: MPVS Ultra, manufacturer: Millar Instruments). The right ventricular end-systolic pressure (RVESP), right ventricular end-diastolic pressure, left ventricular end-systolic pressure, left ventricular end-diastolic pressure were measured using an exclusive catheter (Mikro-Tip rat pressure catheter, manufacturer: Millar Instruments). The cardiac output was measured using a perivascular blood flow probe (Transonic Flow probes, manufacturer: Millar Instruments), and experimental method thereof was performed by the same method as disclosed in the following literature: Pacher P, Nagayama T, Mukhopadhyay P, Batkai S, Kass D A. Measurement of cardiac function using pressure-volume conductance catheter technique in mice and rats. Nat Protoc 2008; 3(9):1422-34.\nThe models of PAH, which is a disease having a close relation between immune cell invasion and pathological phenomena, were treated with N3 IgG antibody (1 mpk or 10 mpk) for 3 weeks (i.v., twice a week), and then measured for right ventricular end-systolic pressure (RVESP), right ventricular end-diastolic pressure (RVEDP), left ventricular end-systolic pressure (LVESP), left ventricular end-diastolic pressure (LVEDP), and cardiac output (CO)."}, "[4]": {"molecular_target": "T1, KRS N-terminus (Homo sapiens, UniProt Q15046)", "T1 construct": "a KRS fragment composed of amino acid residues 1-200 in the N-terminus; expressed in transfected cells; host or cells: A549", "T1 sequence (Q15046 1-200)": "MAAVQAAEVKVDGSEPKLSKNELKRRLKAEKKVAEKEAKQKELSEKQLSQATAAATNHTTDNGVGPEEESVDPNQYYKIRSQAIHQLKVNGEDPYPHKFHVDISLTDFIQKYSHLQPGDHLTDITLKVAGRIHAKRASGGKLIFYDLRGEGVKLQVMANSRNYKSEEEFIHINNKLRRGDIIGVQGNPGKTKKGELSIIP", "experiment": "Western blotting of scFv clones against full-length KRS and KRS fragments", "format": "binding", "details": "full-length KRS, fragment lacking N-terminal aa 1-71, fragment aa 1-200; transformed A549 lysate", "description": "To investigate whether the scFv clones (N3, N5, N7, and N9) finally selected through Example <1-6> actually bound to KRS N-terminus, full-length KRS (denoted by F, SEQ ID NO: 76), a KRS fragment with deletion in amino acids at positions 1-71 in the N-terminus (defined by SEQ ID NO: 1), and a KRS fragment composed of amino acid residues 1-200 in the N-terminus (defined by SEQ ID NO: 2) were used to conduct western blotting.\nA549 cells were transformed by the method as described in Example <1-6> using polynucleotides encoding full-length KRS and KRS fragments. Thereafter, the cells were lysed, and western blotting was performed by the same method as described in Example <1-4>."}, "[5]": {"molecular_target": "T2, KRS N-terminal region exposed on the cell membrane (A549 cells, myc-KRS WT/T52D/T52A) (Homo sapiens, UniProt Q15046, T52D)", "T2 construct": "expressed in transfected cells; host or cells: A549", "T2 sequence (Q15046 whole entry T52D)": "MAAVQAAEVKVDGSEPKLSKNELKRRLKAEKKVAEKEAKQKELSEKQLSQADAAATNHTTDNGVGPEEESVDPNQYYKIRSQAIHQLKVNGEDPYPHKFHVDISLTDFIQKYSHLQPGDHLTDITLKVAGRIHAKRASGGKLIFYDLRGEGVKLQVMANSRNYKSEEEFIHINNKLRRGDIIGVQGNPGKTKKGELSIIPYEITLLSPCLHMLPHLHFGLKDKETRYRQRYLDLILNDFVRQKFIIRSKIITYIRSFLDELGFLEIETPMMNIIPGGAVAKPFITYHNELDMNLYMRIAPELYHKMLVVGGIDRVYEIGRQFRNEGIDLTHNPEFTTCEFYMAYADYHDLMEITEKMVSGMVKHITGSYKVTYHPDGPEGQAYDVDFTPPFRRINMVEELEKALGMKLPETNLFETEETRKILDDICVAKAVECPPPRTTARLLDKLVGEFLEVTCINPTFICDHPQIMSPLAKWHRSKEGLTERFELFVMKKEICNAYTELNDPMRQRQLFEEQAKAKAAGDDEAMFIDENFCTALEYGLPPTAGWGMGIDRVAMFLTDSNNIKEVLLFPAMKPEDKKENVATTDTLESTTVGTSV", "experiment": "Immunofluorescence of scFv clones on cells with KRS N-terminal region exposed on the cell membrane", "format": "cell-based", "details": "A549 cells expressing myc-KRS T52D (active), T52A (inactive) or WT-KRS (laminin untreated)", "procedure": "(§1) Immunofluorescence was performed to investigate whether the scFv clones selected in Example <1-5> actually bound to the KRS N-terminal region exposed on the cell membrane. In order to make a phenomenon in which KRS is exposed on the membrane, KRS-T52D mutant (active mutant) was used. […] After incubation for 24 h, the cells were incubated using serum-free media (RPMI 1640 media) at 37° C. for 1 h. Thereafter, the cells were treated with 10 μg/ml laminin (L2020; Sigma) and then incubated at 37° C. for 1 h.\n(§2) The prepared samples were washed with PBS (4° C.), fixed by the treatment with 4% paraformaldehyde for 10 min, and then washed. The samples were blocked with CAS block for 10 min, and treated with the scFv and Myc antibodies for 2 h. Thereafter, the unbound antibodies were washed out, and incubated with secondary antibodies for 1 h in a dark room. DAPI staining was performed for 10 min before mounting."}, "[6]": {"molecular_target": "T3, extracellularly exposed KRS N-terminal region (Homo sapiens, UniProt Q15046)", "T3 construct": "expressed in transfected cells; host or cells: A549", "T3 sequence (Q15046 whole entry)": "as the sequence (Q15046 whole entry T52D) above, with D52T counted along it", "experiment": "Immunofluorescence staining of converted IgGs", "format": "cell-based", "details": "WT-KRS membrane localization induced by laminin treatment", "procedure": "as §1, §2\nTo investigate whether the IgGs constructed in the present invention actually bound to the region of KRS exposed on the cell membrane, immunofluorescence was performed. Immunofluorescence staining was performed by the same method as described in Example <1-6> by using N3 IgG and N5 IgG as representatives."}, "[7]": {"molecular_target": "T4, KRS 1-207 aa (Homo sapiens, UniProt Q15046)", "T4 construct": "to the antigen (KRS 1-207 aa)", "T4 sequence (Q15046 1-207)": "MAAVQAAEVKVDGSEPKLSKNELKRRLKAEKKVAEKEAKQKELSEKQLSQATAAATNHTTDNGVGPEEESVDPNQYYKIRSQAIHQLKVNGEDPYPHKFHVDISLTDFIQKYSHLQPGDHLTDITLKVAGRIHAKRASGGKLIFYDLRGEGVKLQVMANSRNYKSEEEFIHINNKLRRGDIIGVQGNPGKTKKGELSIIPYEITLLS", "experiment": "SPR (Biacore 2000) binding of IgGs to immobilized KRS", "details": "immobilized KRS 185 RU, antibody 6.25-100 nM", "procedure": "The quantitative binding ability of the purified antibody proteins (N3 IgG and N5 IgG) to the antigen (KRS 1-207 aa) were measured using Biacore 2000 SPR (surface plasmon resonance) (GE healthcare, US) biosensor. After KRS was immobilized on a sensor chip (CM5, GE healthcare, US), antibody proteins (6.25-100 nM), which were serially diluted with HES buffer solution (10 mM HEPES, pH 7.4, 150 mM NaCl, 3 mM EDTA, 0.005% surfactant P20), were allowed to flow at a rate of 30 μl/min for 3 min, and 1 M NaCl/20 mM NaOH was allowed to flow at a rate of 30 μl/min for 3 min, thereby inducing the dissociation of proteins bound to the antigen. Mock IgG was used as control. Specific experiment conditions are as follows:\nImmobilized level: 185 RU\nAntibody: N3 IgG and N5 IgG\nRunning buffer: HBS-N buffer\nRegeneration: 2 M NaCl, 20 mM NaOH (flow 30 ul/min 1 min)\nThe affinity was obtained from the kinetic rate constants (ka and kd) and equilibrium dissociation constants (KD) by using BIA evaluation ver. 3.2 software. FIGS. 6A-6B show SPR graph results of N3 IgG and N5 IgG, respectively. It was confirmed from FIGS. 6A-6B and Table 3 that N3 IgG and N5 IgG of the present invention has high specific binding ability to the KRS N-terminal region."}, "[8]": {"molecular_target": "T5, KRS (Homo sapiens, UniProt Q15046)", "T5 construct": "endogenous in cells; host or cells: HCT116", "T5 sequence (Q15046 whole entry)": "as the sequence (Q15046 whole entry T52D) above, with D52T counted along it", "experiment": "Western blotting and immunoprecipitation of converted IgGs", "format": "binding", "details": "HCT116 cell lysate"}}}
{"molecule": "CCCc1nn(C)c2c(=O)[nH]c(-c3cc(S(=O)(=O)N4CCN(C)CC4)ccc3OCC)nc12", "note": "[Sildenafil, sildenafil, reference compound]", "values": [{"measurement": "D-shaped left ventricle finding indicating pressure overload in the right ventricle", "setting": "[1]", "value": "three"}, {"measurement": "body weight, absolute change", "setting": "[2]", "value": "104.1 ± 26.4", "unit": "g"}, {"measurement": "body weight, relative change", "setting": "[2]", "value": "49.8 ± 10.5", "unit": "%"}, {"measurement": "CO", "setting": "[3]; n = 4", "value": "49.6 ± 17.7", "unit": "mL/min"}, {"measurement": "LVEDP", "setting": "[3]; n = 5", "value": "3.6 ± 2.3", "unit": "mmHg"}, {"measurement": "LVESP", "setting": "[3]; n = 5", "value": "83.2 ± 4.7", "unit": "mmHg"}, {"measurement": "RVEDP", "setting": "[3]; n = 5", "value": "2.6 ± 1.3", "unit": "mmHg"}, {"measurement": "RVESP", "setting": "[3]; n = 5", "value": "48.4 ± 9.6", "unit": "mmHg"}]}
{"molecule": "B1", "values": [{"measurement": "specific binding to KRS N-terminus (western blotting)", "setting": "[4]", "value": "specifically bound to the KRS N-terminus"}, {"measurement": "binding to membrane-exposed KRS N-terminal region (immunofluorescence)", "setting": "[5]", "value": "binding only active mutant cells"}]}
{"molecule": "B2", "values": [{"measurement": "binding to extracellularly exposed KRS N-terminal region (immunofluorescence)", "setting": "[6]", "value": "favorably bound specifically"}, {"measurement": "ka", "setting": "[7]", "value": "3.13e+06", "unit": "M⁻¹ s⁻¹"}, {"measurement": "kd", "setting": "[7]", "value": 0.003282, "unit": "s⁻¹"}, {"measurement": "KRS binding ability (western blotting and immunoprecipitation)", "setting": "[8]", "value": "bound to KRS"}]}
{"molecule": "B3", "values": [{"measurement": "specific binding to KRS N-terminus (western blotting)", "setting": "[4]", "value": "specifically bound to the KRS N-terminus"}, {"measurement": "binding to membrane-exposed KRS N-terminal region (immunofluorescence)", "setting": "[5]", "value": "binding only active mutant cells"}]}
{"molecule": "B4", "values": [{"measurement": "specific binding to KRS N-terminus (western blotting)", "setting": "[4]", "value": "specifically bound to the KRS N-terminus"}, {"measurement": "binding to membrane-exposed KRS N-terminal region (immunofluorescence)", "setting": "[5]", "value": "binding only active mutant cells"}]}
{"molecule": "B5", "values": [{"measurement": "specific binding to KRS N-terminus (western blotting)", "setting": "[4]", "value": "specifically bound to the KRS N-terminus"}, {"measurement": "binding to membrane-exposed KRS N-terminal region (immunofluorescence)", "setting": "[5]", "value": "binding only active mutant cells"}]}
